Data: patent publication US20230382979A1 (ADAPTIVE BIOTECHNOLOGIES, published 2023)
Where a chain is given by its changes, count along the chain named.

B1: antibody 2706 (antibody, V domains shown)
VH: QVQLVQSGAEVKKPGSSVKVSCKASGGTFSTYAISWVRQAPGQGLEWMGGIIPLFATANYAQNFQGRVTITADKSTSTAYMELSSLRSEDTAVYYCASVRLHLEELSLSHQGDYYYGLDVWGQGTTVTVSS
VL: DIQMTQSPSSLSASVADRVTITCQASQDISHYLNWYQQKPGKAPQLLIYDASKLETGAPSRFSGSGSGTDFTFTISSLQPEDIATYYCQQYDHLPLTFGGGSKVEIK
B2: antibody 980 (antibody, V domains shown)
VH: QVQLVESGGGVVQPGRSLRLSCAASGFTFSRYGMHWVRQAPGKGLEWVALISSGGSNKYYADSVKGRFTISRDNSKNTLYLEMNSLRAEDTAVYYCAKDAIYDYIWGAYRENWFDPWGQGTLVTVSS
VL: DIQMTQSPSSLSASVGDRVTITCRASQSISNYLNWYQQKPGKAPNLLIYAASSLQSGVPSRFSGSGSGTDFTLTISSLQPEDFATYYCQQTSSPPLTFGQGTKVEIK
B3: antibody 2619 (antibody, V domains shown)
VH: EVQLVESGGGLVQPGRSLRLSCAASGFTFDDYAMHWVRQAPGKGLEWVSGISWNSGSIGYADSVKGRFTLSRDNAKNSLFLQMDSLRAEDTALYYCAKDVSYRSGSYYRFWGGSGSWGQGTLVTVSS
VL: B2 VL with Q27L, S30R, N31S, A43P, N45K, T91S, S92Y, P94T, Q100G
B4: antibody 3086 (antibody, V domains shown)
VH: QVQLQESGPGLVKPSETLSLTCTVSGGSISGHYWSWIRQPPGKGLEWIGYIYYSGSTNYNPSLKSRVTISVDTSVNQFSLKLSSVTAADTAVYYCARQEARDAVGNYFFDSWGQGTLVTVSS
VL: QSALTQPASVSGSPGQSITISCSGTSSDIGSYDLVSWYQQHPGKAPKLLIYDVTKRPSGVSHRFSGSKSGNTASLTISGLQGEDEADYYCCSYVHFSTWVFGGGTKLTVL
B5: antibody 2729 (antibody, V domains shown)
VH: QVTLKESGPVLVKPTETLTLTCTVSGFSLSNARMGVSWIRQPPGKALEWLAHIFSNDEKSYSTYLKSRLTISKDSSKSQVVLTMTIMDPVDTATYYCARTAGRYSSRWGHYYYYMDVWGKGTTVTVSS
VL: NFMLTQPHSVSESPGKTVTISCTGSNGSIASNFMQWYQQRPGSAPTIVIYEDNQRPSGVPDRFSGSIDGSSNSASLTISGLKTEDEADYYCQSYDSSDSDLGVFGGGTKLTVL
B6: antibody 4441 (antibody, V domains shown)
VH: EVQLVESGGGLVQPGRSLRLSCAASGLTFEDYAMHWVRQPPGKGLEWVSGVSWNSGTIGYADSVKGRFTISRDNAKNSLYLHMRSLGAEDTAMYYCAKDMGGRFSFFSLENDAFDIWGQGTMVIVSS
VL: SYELTQPPSVSVSPGQTARITCSGDALPKQSTYWYQQKPGQAPVLVIYKDIERPSGIPERFSGSSSGTTVTLTISGVQAEDEADYYCQSADSSDTYVFGTGTKVTVL
B7: antibody 2020 (antibody, V domains shown)
VH: QVQLVQSGAEVKKPGASVKVSCKASGYTFTDYFMHWVRQAPGQGLEWMGWVNPLSGGTNFAQKFQGRVTMTSDTSITTVYMELSRLRSDDTAVYYCARDPPLYSSTYGMDVWGQGTTVTVSS
VL: QSALTQPASVSGSPGQSITISCTGTSSDVGAYNYVSWYQQHPGKAPKLMIYDVSDRPSGVSNRFSGSKSGNTASLTISGLQAEDEADYYCSSYTISSSVVFGGGTKLTVL
B8: antibody 2050 (antibody, V domains shown)
VH: QVQLVQSGAEVKKPGASVKVPCKVSGYTFTDHFIHWVRQAPGQGLEWMGWISPNSGGRNYTQKFQGRVTLTRDTAITTVHMDLSSLTPDDTAVYYCARDVRWAQLQGGFDLWGQGTMVTVSS
VL: QSALTQPASVSGSPGQSITISCTGTSSDVGSYNLVSWYQQHPGKAPKLMIYEVSKRPSGVSNRFSGSKSGNTASLTISGLQADDEADYYCCSYAGDNNFLFGGGTSLTVL
B9: antibody 1213 (antibody, V domains shown)
VH: QMQLVQSGAEVKKTGSSVKVSCEASENTFTNRYLHWVRQAPGQALEWMGWITPFQGNTHYAQKFQDRVTITRDRSMNTVYMELSSLRSEDTAIYYCASGGQYGPGSYYFEFWGQGTLVTVSS
VL: EIVMTQSPATLSVSPGERATLSCRASQSIRNNLAWYRQKPGQAPRLLIYGASTRAAGVPARFSGSGSGTEFTLTISSLQSEDFAVYYCQQYINWPPLTFGGGTKVEIK
B10: antibody 1227 (antibody, V domains shown)
VH: B9 VH with E26G, N27Y, H59N, R74M, I93K, P104A, F109L, F111D
VL: B9 VL with I29V, N31S, A56T, K104R
B11: antibody 1679 (antibody, V domains shown)
VH: QITLKESGPTLVKPTQTLTLTCTFSGFSLSTVGVGVAWIRQPPGKALEWLALIYWDDDKRYSPSLKSRLTITKDTSKNHVVLTMTNMDPVDTATYYCAHHIIAALVDVWGKGTTVTVSS
VL: QSALTQPASVSGSPGQSITISCTGTSSDVGGNNYVSWYQHHPGEAPKLMIYEVSNRPSGVSNRFSGSKSGNTASLTISGLQAEDEADYYCSSYTTSSTLVVFGGGSKLTVL
B12: antibody 2075 (antibody, V domains shown)
VH: QVQLVQSGAEVKKPGSSVKVSCTASGGTFSIYAFSWVRQAPGQGLEWMGGIIPISGTAGYAQKFQGRVTITADESTSTAYMELSSLRSEDTAIYYCARKYRYCSGSRCYTYFDYWGQGTLVTVSS
VL: DIQMTQSPSSLSASVGDRVTITCRASQSISSFLNWYQQKPGKAPKLLIYAASSLQSGVPSRFSGSGSGTDFTLTISSLQPEDSATYYCQQSYSTITFGQGTRLEIK
B13: antibody 2892 (antibody, V domains shown)
VH: QVQLVQSGAEVKKPGSSVKVSCKASGDAFISYAISWVRQAPGQGLEWMGGIIPIFGTANYAQKFQGRVTISADESTSTAYMELSRLRSEDTAVYYCARGGPEPYGSGSGYTPRYNWFDPWGQGTLVTVSS
VL: QSALTQPRSVSGSPGQSVTISCTGTSSDVGGYNYVSWYQQHPGKAPKFMIYDVNRRPSGVPDRFSGSKSGNTASLTISGLQAEDEADYYCCSYAGTYTWVFGGGTKLTVL
B14: antibody 935 (antibody, V domains shown)
VH: EVQLVESGGGLVQPGGSLRLSCAASGFTVSSNYMSWVRQAPGKGLEWVSVIYSGGSTFYADSVKGRFTISRDNSRNTLYLQMNSLRAEDTAVYYCARDWGEFFFDFWGQGALVTVSS
VL: EIVLTQSPGTLSLSPGERATLSCRASQTISSSYLAWYQQKPGQAPRLLISGASSRATGIPDRFSGSGSGTDFTLTISRLEPEDFAVYYCQQYGSSPRTFGQGTNVEIK
B15: antibody 1231 (antibody, V domains shown)
VH: QVQLVQSGSELKKPGASVKVSCTGYGYTFTSYAMNWVRQAPGQGLEWMGWINTNTGHPAYAQGFTGRFVFSLDSSVSTAYLQISSLKAEDTAVYYCATTIRAGGYFDFWGQGTLVTVSS
VL: DIQLTQSPSFLSASVGDRVTITCRASQGISSYLAWFQQKPGKAPKLLIYVVSILQSGVPSRFSGSGSGTEFTLTISSLQPEDFATYYCQQLNSYPYTFGQGTKLEIK
B16: antibody 1826 (antibody, V domains shown)
VH: QVQLQESGPGLVKPSETLSLTCSVTGGSTNYYYWSWIRQPPGKGLEWIGYIYYSGTTNYNPSLKDRVTMSVDKSKTQLSLKLNSVTAADTAVYYCARHARHCTNGVCQTYYYYGLDVWGLGTTVAVSA
VL: QSVLTQPPSVSAAPGQRVTISCSGSSSNIGAGYDVHWYQHLPGTAPKLLIYNNNNRPSGVPDRFSASRSGTSASLAITGVQTEDEADYYCQSFDGRLSESGVFGGGTKLTVL
B17: antibody 1864 (antibody, V domains shown)
VH: QVQLQESGPGLVKPSETLSLTCTVSGGSINYYYWSWIRQPPGKGLEWIGFIYSSGTTNYNPSLKSRVTMSVDSSKSQFSLKLSSVTAADSAVYYCARHSRSCTNGVCQTYYYYALDVWGHGTTVTVSS
VL: QSVLTQPPSVSGAPGQRVTISCTGSSSNIGAGYDVHWYQQLPGTAPKLLIYGNSNRPSGVPDRFSASKSGTSASLAIAGLQPEDEGDYYCQSYDGSLSESGVFGGGTRLTVL
B18: antibody 1870 (antibody, V domains shown)
VH: B17 VH with T23S, S73T, S76N
VL: B17 VL with P82A
B19: antibody 1851 (antibody, V domains shown)
VH: B17 VH with P40S
VL: B17 VL

Molecular target: SARS-CoV-2 spike protein, WA1/2020, borne on lentiviral pseudovirus (SARS-CoV-2, WA01/2020 strain, UniProt P0DTC2 14-1273)
Experiment: cell-based or functional assay

Binder	Pseudo Neut, WA1/2020 IC50 (pM)
B1	795
B2	952
B3	213
B4	82
B5	584
B6	276
B7	214
B8	427
B9	90600
B10	116000
B11	> 163
B12	783
B13	65
B14	420
B15	95000

Molecular target: S2 subunit of the SARS-CoV-2 spike protein, WA01/2020 strain (SARS-CoV-2, WA01/2020 strain, UniProt P0DTC2 686-1213)
Experiment: ELISA, antibody at 0.1 ug/mL

Binder	binding result
B1	no binding (tested: 0.1 ug/mL)
B2	no binding (tested: 0.1 ug/mL)
B5	no binding (tested: 0.1 ug/mL)
B6	no binding (tested: 0.1 ug/mL)
B7	no binding (tested: 0.1 ug/mL)
B8	no binding (tested: 0.1 ug/mL)
B12	no binding (tested: 0.1 ug/mL)
B13	no binding (tested: 0.1 ug/mL)

Molecular target: T1, SARS-CoV-2 nucleocapsid (N) protein (SARS-CoV-2, UniProt P0DTC9 1-419)
Experiment: ELISA, antibody at 0.1 ug/mL

Binder	binding result
B1	no binding (tested: 0.1 ug/mL)
B2	no binding (tested: 0.1 ug/mL)
B5	no binding (tested: 0.1 ug/mL)
B6	no binding (tested: 0.1 ug/mL)
B7	no binding (tested: 0.1 ug/mL)
B8	no binding (tested: 0.1 ug/mL)
B12	no binding (tested: 0.1 ug/mL)
B13	no binding (tested: 0.1 ug/mL)

Molecular target: S1 subunit of the SARS-CoV-2 spike protein, WA01/2020 strain (SARS-CoV-2, WA01/2020 strain, UniProt P0DTC2 16-685)
Experiment: ELISA screening, antibody concentration not given

Binder	binding result
B16	no binding (tested: not printed)
B17	no binding (tested: not printed)
B18	no binding (tested: not printed)
B19	no binding (tested: not printed)

Molecular target: T1, SARS-CoV-2 nucleocapsid (N) protein
Experiment: ELISA screening, antibody concentration not given

Binder	binding result
B16	no binding (tested: not printed)
B17	no binding (tested: not printed)
B18	no binding (tested: not printed)
B19	no binding (tested: not printed)
